Assay results taken from article doi:10.1101/2021.04.14.439868.

T1: LuxR (Vibrio campbellii BB120, UniProt P21308 1-205)
T1 sequence: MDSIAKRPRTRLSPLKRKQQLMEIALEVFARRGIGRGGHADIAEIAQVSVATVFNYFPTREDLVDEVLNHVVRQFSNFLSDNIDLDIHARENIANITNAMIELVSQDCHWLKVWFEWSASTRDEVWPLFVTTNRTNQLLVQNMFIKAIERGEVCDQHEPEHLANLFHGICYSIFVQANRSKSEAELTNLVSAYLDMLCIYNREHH

T2: SmcR (Vibrio vulnificus ATCC 27562, UniProt Q9L8G8 1-205)
T2 sequence: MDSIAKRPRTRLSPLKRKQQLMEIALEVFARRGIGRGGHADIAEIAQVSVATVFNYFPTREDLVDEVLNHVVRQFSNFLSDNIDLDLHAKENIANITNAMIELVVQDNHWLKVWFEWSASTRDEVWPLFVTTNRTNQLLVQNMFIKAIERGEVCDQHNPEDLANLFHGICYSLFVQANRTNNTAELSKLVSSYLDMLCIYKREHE

B1: luxC promoter site B (JDN54/JDN55) (dsDNA)
DNA 1: TTACTTATTTATAGTGTTACAAATAACATTA
DNA 2: TAATGTTATTTGTAACACTATAAATAAGTAA
B2: vvpE promoter (AB324/AB325) (dsDNA)
DNA 1: ATAAATCAAATTTGTAACTTTATTTCTGAGATGACTGTCCCATTTATCTTATTGATAAATCTGCGTAAAAAAGAAAAAGCACAATTTTATTACTAGTGTTT
DNA 2: AAACACTAGTAATAAAATTGTGCTTTTTCTTTTTTACGCAGATTTATCAATAAGATAAATGGGACAGTCATCTCAGAAATAAAGTTACAAATTTGATTTAT

Experiments:
LuxR = target: T1, LuxR; experiment: EMSA
SmcR = target: T2, SmcR; experiment: EMSA

Binder | binding result (LuxR) | binding result (SmcR)
B1 | binds | 
B2 |  | binds
